For the series the following is noted: Bos taurus, pH 8, GdnHCl, CD, cacodylate 50 mM, reversible: yes.

As for Phospholipase A2 F128A, P00593, under “25 °C, structure 1BP2”, the “ddG of mutation (higher = less stable)” value was 0.9 kcal/mol, the denaturant m value amounted to 1.47 kcal/mol/M, the “denaturant midpoint (higher = more stable)” value (shortened to “denaturant midpoint”) is 5.9 M and the unfolding free energy amounted to 8.6 kcal/mol.

In the case of Phospholipase A2 F44Y, P00593, for the setting “30 °C, structure 1BP2”, the “ddG of mutation (higher = less stable)” value is -1.5 kcal/mol, the denaturant m value stood at 1.58 kcal/mol/M, the “denaturant midpoint” value was 7 M and the unfolding free energy came to 11 kcal/mol.

Regarding Phospholipase A2 F128I, P00593, where the note is “30 °C, structure 1BP2”, the “ddG of mutation (higher = less stable)” value was -1.9 kcal/mol, the denaturant m value amounted to 1.65 kcal/mol/M, the “denaturant midpoint” value stood at 6.9 M and the unfolding free energy is 11.4 kcal/mol.

Consider Phospholipase A2 wild type, P00593, for which, for the setting “30 °C”, the denaturant m value came to 1.47 kcal/mol/M, the “denaturant midpoint” value turned out to be 6.9 M and the unfolding free energy is 9.5 kcal/mol.

Consider Phospholipase A2 F44I, P00593, for which, for the setting “30 °C, structure 1BP2”, the “ddG of mutation (higher = less stable)” value is -2.7 kcal/mol, the denaturant m value was 1.73 kcal/mol/M, the “denaturant midpoint” value was found to be 7 M and the unfolding free energy was determined as 12.2 kcal/mol.

Consider Phospholipase A2 F128Y, P00593, for which, where the note is “30 °C, structure 1BP2”, the “ddG of mutation (higher = less stable)” value was -0.6 kcal/mol, the denaturant m value worked out at 1.53 kcal/mol/M, the “denaturant midpoint” value worked out at 6.6 M and the unfolding free energy was determined as 10.1 kcal/mol.

These data come from FireProtDB (doi:10.1021/bi00158a021).
